Results from patent publication US8658672.

Legend:
[1] = molecular target: T1, F-HIF-1α peptide (788-822 amino acids)
T1 chain: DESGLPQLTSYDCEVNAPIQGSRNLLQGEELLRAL

[2] = molecular target: [35S]-labeled human HIF-1α protein, Q16665
Sequence of [35S]-labeled human HIF-1α protein, Q16665 (Q16665 401-826): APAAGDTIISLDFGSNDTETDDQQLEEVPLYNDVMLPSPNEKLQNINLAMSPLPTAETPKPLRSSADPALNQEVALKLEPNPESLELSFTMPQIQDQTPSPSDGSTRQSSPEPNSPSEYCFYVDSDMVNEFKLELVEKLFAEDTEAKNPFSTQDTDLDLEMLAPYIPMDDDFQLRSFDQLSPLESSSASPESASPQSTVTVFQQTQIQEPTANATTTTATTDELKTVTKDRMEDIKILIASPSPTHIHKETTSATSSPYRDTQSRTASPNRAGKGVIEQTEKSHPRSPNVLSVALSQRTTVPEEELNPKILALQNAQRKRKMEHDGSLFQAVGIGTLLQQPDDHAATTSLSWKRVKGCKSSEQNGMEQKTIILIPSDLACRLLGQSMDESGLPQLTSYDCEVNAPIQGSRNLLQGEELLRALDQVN

B1: recombinant human FIH-1, histidine-tagged fusion protein (protein)
chain: MAATAAEAVASGSGEPREEAGALGPAWDESQLRSYSFPTRPIPRLSQSDPRAEELIENEEPVVLTDTNLVYPALKWDLEYLQENIGNGDFSVYSASTHKFLYYDEKKMANFQNFKPRSNREEMKFHEFVEKLQDIQQRGGEERLYLQQTLNDTVGRKIVMDFLGFNWNWINKQQGKRGWGQLTSNLLLIGMEGNVTPAHYDEQQNFFAQIKGYKRCILFPPDQFECLYPYPVHHPCDRQSQVDFDNPDYERFPNFQNVVGYETVVGPGDVLYIPMYWWHHIESLLNGGITITVNFWYKGAPTPKRIEYPLKAHQKVAIMRNIEKMLGEALGNPQEVGPLLNTMIKGRYN
MALDI-TOF mass of the peptide after incubation with FIH-1 (asparagine hydroxylation) [1]: after treatment with FIH-1 the peptide gave a new MALDI-TOF peak corresponding to an increase of molecular weight of 16 | interaction of [35S]-HIF-1α with bead-bound GST-CBP after reaction with FIH-1 [2]: the addition of FIH-1 reduced significantly the interaction between HIF-1α and CBP
